Assay results: US20250154283A1 (published 2025)

T1: biotinylated cynomolgus monkey VWF cysteine knot (CK) domain construct (cynomolgus monkey, biotinylated in vitro (BirA) on the biotinylation tag; one N-glycan)
T1 construct: Expressed in HEK293 EBNA cells; disulfide-linked homodimer; also called cyno VWF CK; cyno VWF CK domain; not shown: in vitro biotinylation tag, HRV-3C site and 3 VWF residues before the CK domain
T1 chain: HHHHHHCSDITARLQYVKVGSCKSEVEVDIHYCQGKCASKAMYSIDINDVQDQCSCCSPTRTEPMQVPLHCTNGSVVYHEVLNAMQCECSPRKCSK

B1: 5802_Lib4_scFv (scFv)
scFv: QVQLQESGPGLVKPSQTLSLTCTVSGYSISSGDYHWSWIRQPPGKGLEWIGYINPSGSADYNPSLKSRVTMSVDTSKNQFSLKVNSVTAADTAVYYCARDGVAATYYYYYGMDVWGQGTTVTVSSSGGSTITSYNVYYTKLSSSGTEIVMTQSPATLSLSPGERATLSCRASHSIGSNLAWYQQKPGQAPRLLIYDATTRATGIPARFSGSGSGTDFTLTISSLEPEDFAVYYCQQAYSFPLTFGGGTKVEIK
notes: VH-linker-VL; not shown: C-terminal 3xFLAG and SV5 tags
B2: 1374_Lib8_scFv (scFv)
scFv: EVQLVESGGGLVQPGRSLRLSCAASGVDFSTYAMHWVRQAPGKGLEWVSAISSSGAYTDYADSVEGRFTISRDNAKNSLYLQMNSLRAEDTAVYYCATDRGPFSGYGTQGWFDPWGQGTLVTVSSSGGSTITSYNVYYTKLSSSGTDIQMTQSPSSLSASVGDRVTITCRASQTIRSYLAWYQQKPGKAPKLLIYGASDLQSGVPSRFSGSGSGTDFTLTISSLQPEDVATYYCQQYANFPITFGGGTKVEIK
notes: as for B1
B3: 1405_Lib8_scFv (scFv)
scFv: EVQLVESGGGLVQPGRSLRLSCAASGVDFSTYAMHWVRQAPGKGLEWVSAISSSGAYTDYADSVEGRFTISRDNAKNSLYLQMNSLRAEDTAVYYCATDRGPFSGYGTQGWFDPWGQGTLVTVSSSGGSTITSYNVYYTKLSSSGTDIQMTQSPSSLSASVGDRVTITCRASRDITSYLAWYQQKPGKAPKLLIYHASTLEAGVPSRFSGSGSGTDFTLTISSLQPEDVATYYCQQYGDFPPTFGGGTKVEIK
notes: as for B1
B4: 9301_Lib8_scFv (scFv)
scFv: EVQLVESGGGLVQPGRSLRLSCAASGFNFHNYDMHWVRQAPGKGLEWVSAISGSGYTADYADSVEGRFTISRDNAKNSLYLQMNSLRAEDTAVYYCAKSHSSGWSSAFDIWGQGTMVTVSSSGGSTITSYNVYYTKLSSSGTDIQMTQSPSSLSASVGDRVTITCRASQTIGYWLAWYQQKPGKAPKLLIYDASVPESGVPSRFSGSGSGTDFTLTISSLQPEDVATYYCQQTLSSPWTFGGGTKVEIK
notes: as for B1
B5: 9621_Lib8_scFv (scFv)
scFv: EVQLVESGGGLVQPGRSLRLSCAASGFSFSMYAMHWVRQAPGKGLEWVSAISPSGDATDYADSVEGRFTISRDNAKNSLYLQMNSLRAEDTAVYYCARGMQDYGHYYYYYMDVWGKGTTVTVSSSGGSTITSYNVYYTKLSSSGTDIQMTQSPSSLSASVGDRVTITCRASQDISTSLAWYQQKPGKAPKLLIYGASSLETGVPSRFSGSGSGTDFTLTISSLQPEDVATYYCQQGYIAPRTFGGGTKVEIK
notes: as for B1
B6: 7046_Lib8_scFv (scFv)
scFv: EVQLVESGGGLVQPGRSLRLSCAASGFNFHNYDMHWVRQAPGKGLEWVSAISGSGYTADYADSVEGRFTISRDNAKNSLYLQMNSLRAEDTAVYYCAKSHSSGWSSAFDIWGQGTMVTVSSSGGSTITSYNVYYTKLSSSGTDIQMTQSPSSLSASVGDRVTITCRASQTIGYWLAWYQQKPGKAPKLLIYDATNLATGVPSRFSGSGSGTDFTLTISSLQPEDVATYYCQHYNPYSQVTFGGGTKVEIK
notes: as for B1
B7: 16_Lib8_scFv (scFv)
scFv: EVQLVESGGGLVQPGRSLRLSCAASGFRFDEYDMHWVRQAPGKGLEWVSAISSESASIDYADSVEGRFTISRDNAKNSLYLQMNSLRAEDTAVYYCARDGAYGDYFDYWGQGTMVTVSSSGGSTITSYNVYYTKLSSSGTDIQMTQSPSSLSASVGDRVTITCRASQDIKSWLAWYQQKPGKAPKLLIYGASTLQSGVPSRFSGSGSGTDFTLTISSLQPEDVATYYCQQSYSAPYTFGGGTKVEIK
notes: as for B1
B8: Lib1_P1_A2_scFv (scFv)
scFv: QVQLVQSGAEVKKPGASVKVSCKVSEGTLSRHYINWVRQAPGKGLEWMGGINAKSGATIYAQKFQGRVTMTEDTSTDTAYMELSSLKSEDTAVYYCAKDTGDDILTDYSDAFDIWGQGTMVTVSSSGGSTITSYNVYYTKLSSSGTDIQMTQSPSSVSASVGDRVTITCRASQNIGTSLAWYQQKPGKAPKLLIYGASNLESGVPSRFSGSGSGTDFTLTISSLQPEDFANYYCLQYNDWPPLYSFGGGTKVEIK
notes: as for B1
B9: Lib4_P2_A11_scFv (scFv)
scFv: QVQLQESGPGLVKPSQTLSLTCTVSGVTFSSYGWSWIRQPPGKGLEWIGYVDTSGSTDYNPSLKSRVTMSVDTSKNQFSLKVNSVTAADTAVYYCARTTYYYDSSGFARGWFDPWGQGTLVTVSSSGGSTITSYNVYYTKLSSSGTEIVMTQSPATLSLSPGERATLSCRASRSISTNLAWYQRKPGQAPRLLIYDTSNRAPGIPARFSGSGSGTDFTLTISSLEPEDFAVYYCLQYDVSPYTFGGGTKVEIK
notes: VH-linker-VL; also called Lib4_P2_All; not shown: C-terminal 3xFLAG and SV5 tags
B10: 8226_Lib8_scFv (scFv)
scFv: EVQLVESGGGLVQPGRSLRLSCAASGFNFHNYDMHWVRQAPGKGLEWVSAISGGAVSTDYADSVEGRFTISRDNAKNSLYLQMNSLRAEDTAVYYCARSSWYGGQIDFWGQGTLVTVSSSGGSTITSYNVYYTKLSSSGTDIQMTQSPSSLSASVGDRVTITCRASQDISGWLAWYQQKPGKAPKLLIYAASSLQDGVPSRFSGSGSGTDFTLTISSLQPEDVATYYCQQSYRIPSTFGGGTKVEIK
notes: as for B1
B11: 1081_Lib8_scFv (scFv)
scFv: EVQLVESGGGLVQPGRSLRLSCAASGFNFHNYDMHWVRQAPGKGLEWVSAISGGAVSTDYADSVEGRFTISRDNAKNSLYLQMNSLRAEDTAVYYCARSSWYGGQIDFWGQGTLVTVSSSGGSTITSYNVYYTKLSSSGTDIQMTQSPSSLSASVGDRVTITCRASESVSSWLAWYQQKPGKAPKLLIYGASTLEGGVPSRFSGSGSGTDFTLTISSLQPEDVATYYCQQAYRTPVTFGGGTKVEIK
notes: as for B1
B12: Lib4_P2_H3_scFv (scFv)
scFv: QVQLQESGPGLVKPSQTLSLTCTVSGSTFGDYAWSWIRQPPGKGLEWIGYINHIGNADYNPSLKSRVTMSVDTSKNQFSLKVNSVTAADTAVYYCARDGVESPEVPNYYYYGMDVWGQGTTVTVSSSGGSTITSYNVYYTKLSSSGTEIVMTQSPATLSLSPGERATLSCRASHSIGSNLAWYQQKPGQAPRLLIYDATNRAPGIPARFSGSGSGTDFTLTISSLEPEDFAVYYCQQSYTNPTFGGGTKVEIK
notes: as for B1
B13: Lib1_P1_A6_scFv (scFv)
scFv: QVQLVQSGAEVKKPGASVKVSCKVSGSTFSNYAIHWVRQAPGKGLEWMGGIVPLSGTAIYAQKFQGRVTMTEDTSTDTAYMELSSLKSEDTAVYYCARDQGESSGWYAIYYGMDVWGQGTTVTVSSSGGSTITSYNVYYTKLSSSGTDIQMTQSPSSVSASVGDRVTITCRASQGIGTWLAWYQQKPGKAPKLLIYGSSSRASGVPSRFSGSGSGTDFTLTISSLQPEDFANYYCQQSYGKPTFGGGTKVEIK
notes: as for B1

Key:
[1] = molecular target: T1, biotinylated cynomolgus monkey VWF …; assay: SPR, scFv captured via anti-SV5, CK domain injected, pH 7.4, apparent Kd;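 also: scFvs from crude yeast supernatants printed on an amine-coupled anti-SV5 lawn, Kd computed as koff over kon, likely overestimating affinity because the CK construct is dimeric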
Source text: (§1) Briefly, a sensor chip was activated and coupled with an anti-SV5 mouse monoclonal antibody using amine coupling. The soluble scFvs in crude yeast supernatants were printed on the anti-SV5 lawn. […] From the measured association (kₒₙ) and dissociation (koff) rate constants, an apparent equilibrium dissociation constant (Kd=koff/kₒₙ) was estimated. Due to the dimeric state of the CK construct and consequent possibility for simultaneous binding of captured scFv to both monomers in the CK dimer, the SPR setup was expected to overestimate the binding affinity.

[2] = molecular target: T2, biotinylated human VWF cysteine knot (CK) domain construct (human, UniProt P04275 2724-2813, biotinylated in vitro (BirA) on the biotinylation tag; one N-glycan); assay: as above
T2 construct: Expressed in HEK293 EBNA cells; disulfide-linked homodimer; also called human VWF CK; human VWF CK domain; not shown: in vitro biotinylation tag, HRV-3C site and 3 VWF residues before the CK domain

[3] = molecular target: T2, biotinylated human VWF cysteine knot …; assay: SPR, scFv captured via anti-SV5, CK domain injected, pH 5.5, apparent Kd;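 also: scFvs from crude yeast supernatants captured on chip-bound anti-SV5 antibody, Kd computed as koff divided by kon, dimeric CK construct likely makes affinity appear higher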
Source text: as §1

Row | Binder | Kd [1] | Kd [2] | Kd [3]
1 | B1 | 0.016 nM | 0.101 nM | 1.09 nM
2 | B2 | 0.061 nM | 0.116 nM | 0.043 nM
3 | B3 | 0.039 nM | 0.305 nM | 0.389 nM
4 | B4 | 0.684 nM | 0.167 nM | 0.039 nM
5 | B5 | 0.137 nM | 0.217 nM | 2.28 nM
6 | B6 | 0.002 nM | 0.088 nM | 1.16 nM
7 | B7 |  | 2.11 nM | 1.05 nM
8 | B8 |  | 1.78 nM | 0.076 nM
9 | B9 |  | 3.11 nM | 0.033 nM
10 | B10 | 0.55 nM | 3.17 nM | 1.38 nM
11 | B11 | 0.167 nM | 0.391 nM | 0.274 nM
12 | B12 | 0.134 nM | 0.307 nM | 0.075 nM
13 | B13 | 0.059 nM | 0.092 nM | 0.045 nM
